This note sets out measurements from PMC11480844 (2024).

B1: H2-Kb / Ed45 (parent complex)
chain 1: GEQVEQRPPHLSVREGDSAVIICTYTDPNSYYFFWYKQEPGAGLQLLMKVFSSTEINEGQGFTVLLNKKDKQLSLNLTAAHPGDSAVYFCAVSGTNAYKVIFGKGTHLHVLP
chain 2: EAAVTQSPRSKVAVTGGKVTLSCHQTNNHDYMYWYRQDTGHGLRLIHYSYVADSTEKGDIPDGYKASRPSQENFSLILELASLSQTAVYFCASARGFQDTQYFGPGTRLLVL
chain 3: not shown
chain 4: IQKTPQIQVYSRHPPENGKPNILNCYVTQFHPPHIEIQMLKNGKKIPKVEMSDMSFSKDWSFYILAHTEFTPTETDTYACRVKHDSMAEPKTVYWDRDM
chain 5: SIINFEKL
B2: H2-Kb / Ed5 (parent complex)
chain 1: GDSVTQTEGPVTVSESESLIINCTYSATSIAYPNLFWYVRYPGEGLQLLLKVITAGQKGSSRGFEATYNKETTSFHLQKASVQESDSAVYYCALGSYNQGKLIFGQGTKLSIKP
chain 2: DTTVKQNPRYKLARVGKPVNLICSQTMNHDTMYWYQKKPNQAPKLLLFYYDKILNREADTFEKFQSSRPNNSFCSLYIGSAGLEYSAMYLCASSRRLGASQNTLYFGAGTRLSVL
chain 3: not shown
chain 4: B1 chain 4
chain 5: SIINFEKL
Note: test concentration or dose not given here.

Variants of B1 are the subject of one test. Kind of test: % of reporter cells activated (NFAT-GFP), raw.
As for chain 5 F5L, the ratio to parent is 0.719. As to chain 5 E6T, the ratio to parent is 0.91. With chain 5 K7S, the ratio to parent came out at 1.34.

As for chain 5 L8Q, the ratio to parent was found to be 1.79. In the case of chain 5 N4I, the ratio to parent came to 1.11.

Take chain 5 S1L: the ratio to parent was 0.0583.

The variants in another test derive from B2. Description: % of reporter cells activated (NFAT-GFP), raw.
For chain 5 E6C, the ratio to parent came out at 0.491.

Take chain 5 E6D: the ratio to parent was determined as 0.941. For chain 5 E6G, the ratio to parent stood at 0.939. As to chain 5 E6N, the ratio to parent worked out at 0.498. Consider chain 5 E6Q, for which the ratio to parent came out at 0.619. As for chain 5 E6H, the ratio to parent was found to be 0.554. In the case of chain 5 E6Y, the ratio to parent came to 0.633. As for chain 5 E6F, the ratio to parent was found to be 0.506. Same read-out and setting: the value for chain 5 E6M was 0.443; that for chain 5 E6K was 0.901; that for chain 5 E6W was 0.54. For the variant chain 5 E6A, the ratio to parent worked out at 0.606. With chain 5 E6I, the ratio to parent was 0.533.

For the variant chain 5 E6S, the ratio to parent amounted to 0.585.

Regarding chain 5 E6R, the ratio to parent came out at 0.0689. For the variant chain 5 E6P, the ratio to parent was determined as 0.186. As to chain 5 E6T, the ratio to parent stood at 0.622.

For chain 5 E6V, the ratio to parent came out at 0.618. For the variant chain 5 E6L, the ratio to parent came to 0.165. Consider chain 5 I2F, for which the ratio to parent is 0.851.

For chain 5 I2L, the ratio to parent came out at 0.974. Still for that read-out and setting: next, chain 5 I2V: 1.01; chain 5 I2H: 0.763. As to chain 5 I2D, the ratio to parent stood at 0.943. With chain 5 I2S, the ratio to parent was 0.989.

For chain 5 I2W, the ratio to parent turned out to be 0.66. On the same count and under the same terms, next, chain 5 I2R: 0.641; chain 5 I2Q: 0.711. Take chain 5 I2Y: the ratio to parent turned out to be 0.642. Take chain 5 I2E: the ratio to parent stood at 0.852. For the variant chain 5 I2K, the ratio to parent was found to be 0.798. With chain 5 I2N, the ratio to parent turned out to be 0.749.

With chain 5 I2P, the ratio to parent was 1.04. chain 5 I2T: the ratio to parent was determined as 1.

As to chain 5 I2G, the ratio to parent was 0.875. Regarding chain 5 I2A, the ratio to parent turned out to be 1.01.

chain 5 I2C: the ratio to parent came to 0.958.

Regarding chain 5 F5R, the ratio to parent amounted to 0.764. In the case of chain 5 F5E, the ratio to parent was determined as 0.848. As for chain 5 F5P, the ratio to parent amounted to 0.98. For the variant chain 5 F5I, the ratio to parent is 0.886. With chain 5 F5H, the ratio to parent was found to be 0.822. Same read-out and setting: next, chain 5 F5W: 0.695. As for chain 5 F5A, the ratio to parent came to 1.01. Regarding chain 5 F5Y, the ratio to parent amounted to 0.892. For the variant chain 5 F5G, the ratio to parent was 0.698. On the same count and under the same terms, the value for chain 5 F5S was 0.735.

As to chain 5 F5M, the ratio to parent worked out at 0.938.

Regarding chain 5 F5N, the ratio to parent was 0.855. Turning to chain 5 F5L, the ratio to parent stood at 0.996. As to chain 5 F5T, the ratio to parent was found to be 0.887. Regarding chain 5 F5K, the ratio to parent amounted to 0.905.

On to chain 5 F5C, for which the ratio to parent is 1.04. chain 5 F5Q: the ratio to parent is 0.951. Still for that read-out and setting: next, chain 5 F5V: 0.777; chain 5 N4I: 0.274; chain 5 N4Q: 0.00458. Take chain 5 N4S: the ratio to parent was 0.0018. Consider chain 5 N4M, for which the ratio to parent came to 0.00113. With chain 5 N4A, the ratio to parent amounted to 0.002.

Consider chain 5 N4C, for which the ratio to parent came to 0.164. For the variant chain 5 N4E, the ratio to parent was 0.00233. On to chain 5 N4R, for which the ratio to parent was 0.374. The same measure, in the same setting: next, chain 5 N4H: 0.11; chain 5 N4T: 0.04; chain 5 N4P: 0.00308. chain 5 N4Y: the ratio to parent turned out to be 0.0536. chain 5 N4K: the ratio to parent is 0.0781. On the same count and under the same terms, the value for chain 5 N4F was 0.0112. Same read-out and setting: the value for chain 5 N4W was 0.0358. Same read-out and setting: the value for chain 5 N4G was 0.00398; that for chain 5 N4L was 0.182. Turning to chain 5 N4D, the ratio to parent came out at 0.756. As for chain 5 S1L, the ratio to parent was found to be 0.0134. On to chain 5 S1W, for which the ratio to parent was 0.374. Same read-out and setting: next, chain 5 S1G: 0.491; chain 5 S1P: 0.0946; chain 5 S1D: 0.629. chain 5 S1Y: the ratio to parent is 0.689. In the case of chain 5 S1R, the ratio to parent worked out at 0.293. chain 5 S1V: the ratio to parent stood at 0.126. In the case of chain 5 S1Q, the ratio to parent is 0.556. Consider chain 5 S1F, for which the ratio to parent worked out at 0.0691.

For chain 5 S1N, the ratio to parent was determined as 0.305. As to chain 5 S1T, the ratio to parent is 0.944. As to chain 5 S1H, the ratio to parent came out at 0.559. Regarding chain 5 S1M, the ratio to parent stood at 0.02. Same read-out and setting: the value for chain 5 S1I was 0.00825. On the same count and under the same terms, the value for chain 5 S1K was 0.685.

In the case of chain 5 S1C, the ratio to parent worked out at 0.161. Turning to chain 5 S1E, the ratio to parent came out at 0.981. On to chain 5 I3Y, for which the ratio to parent was 0.0245. As for chain 5 I3R, the ratio to parent is 0.064. The same measure, in the same setting: next, chain 5 I3N: 0.164. As to chain 5 I3C, the ratio to parent came to 0.673. As to chain 5 I3H, the ratio to parent was 0.121.

Turning to chain 5 I3T, the ratio to parent was 0.512. chain 5 I3V: the ratio to parent is 0.661. Still for that read-out and setting: next, chain 5 I3P: 0.36; chain 5 I3S: 0.329. chain 5 I3W: the ratio to parent turned out to be 0.372.

In the case of chain 5 I3K, the ratio to parent was determined as 0.682.

As for chain 5 I3M, the ratio to parent amounted to 0.723. Still for that read-out and setting: next, chain 5 I3G: 0.28; chain 5 I3L: 0.897. Take chain 5 I3A: the ratio to parent turned out to be 0.32.

Take chain 5 I3D: the ratio to parent amounted to 0.436. In the case of chain 5 I3F, the ratio to parent is 0.0887. Consider chain 5 I3E, for which the ratio to parent was 0.287. As to chain 5 K7M, the ratio to parent is 0.725.

For chain 5 K7S, the ratio to parent turned out to be 0.605.

On to chain 5 K7I, for which the ratio to parent was found to be 0.65. Same read-out and setting: next, chain 5 K7G: 0.658; chain 5 K7E: 0.632; chain 5 K7A: 0.645. Same read-out and setting: the value for chain 5 K7H was 0.798; that for chain 5 K7N was 0.714.

Consider chain 5 K7R, for which the ratio to parent was found to be 0.853. On to chain 5 K7P, for which the ratio to parent worked out at 0.728. Still for that read-out and setting: next, chain 5 K7T: 0.602; chain 5 K7V: 0.62; chain 5 K7L: 0.728. For chain 5 K7F, the ratio to parent amounted to 0.657. As to chain 5 K7D, the ratio to parent came out at 0.593. chain 5 K7Y: the ratio to parent was found to be 0.717. In the case of chain 5 K7C, the ratio to parent was 0.686.

Turning to chain 5 L8R, the ratio to parent amounted to 0.904. Take chain 5 L8I: the ratio to parent was 0.758. As for chain 5 L8D, the ratio to parent worked out at 0.747. On to chain 5 L8K, for which the ratio to parent turned out to be 0.793. For the variant chain 5 L8P, the ratio to parent was 0.826.

Turning to chain 5 L8Q, the ratio to parent amounted to 0.783. Consider chain 5 L8E, for which the ratio to parent is 0.629. On to chain 5 L8W, for which the ratio to parent is 0.585. As to chain 5 L8N, the ratio to parent came out at 0.753.

Regarding chain 5 L8C, the ratio to parent came out at 0.929. Consider chain 5 L8M, for which the ratio to parent was 0.752. For chain 5 L8A, the ratio to parent came to 0.711. Regarding chain 5 L8G, the ratio to parent came out at 0.901.

chain 5 L8V: the ratio to parent came to 0.546. Regarding chain 5 L8S, the ratio to parent was determined as 0.641. Consider chain 5 L8H, for which the ratio to parent was 0.958. Turning to chain 5 L8Y, the ratio to parent came out at 0.848.

On to chain 5 L8T, for which the ratio to parent worked out at 0.671.
